The text below walks through data of publication PMC9250508 (2022).

This experiment addresses D614G RBD. Description: BLI. (BLI is a label-free optical method that tracks binding on a fibre tip over time.)

B1: AZD1061 Fab (Fab, V domains shown)
VH: EVQLVESGGGLVKPGGSLRLSCAASGFTFRDVWMSWVRQAPGKGLEWVGRIKSKIDGGTTDYAAPVKGRFTISRDDSKNTLYLQMNSLKTEDTAVYYCTTAGSYYYDTVGPGLPEGKFDYWGQGTLVTVSS
VL: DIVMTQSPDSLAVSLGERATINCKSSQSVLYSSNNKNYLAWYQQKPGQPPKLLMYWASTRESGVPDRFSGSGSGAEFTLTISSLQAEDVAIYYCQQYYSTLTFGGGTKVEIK
B1 yielded a Kd of 0.0145 µM and a koff of 0.00217 s⁻¹.

B2: AZD8895 Fab (Fab, V domains shown)
VH: QMQLVQSGPEVKKPGTSVKVSCKASGFTFMSSAVQWVRQARGQRLEWIGWIVIGSGNTNYAQKFQERVTITRDMSTSTAYMELSSLRSEDTAVYYCAAPYCSSISCNDGFDIWGQGTMVTVSS
VL: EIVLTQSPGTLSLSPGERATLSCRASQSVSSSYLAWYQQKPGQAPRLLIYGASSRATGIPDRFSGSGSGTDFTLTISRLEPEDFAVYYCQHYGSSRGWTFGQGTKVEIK
Take B2: the affinity, expressed as Kd, was 0.00979 µM and the off-rate constant (koff) stood at 0.00603 s⁻¹.

The term Kd denotes the equilibrium constant for the complex coming apart. The low end stands for tighter binding, the high end for weaker binding. Broadly, the koff is the first-order rate constant of dissociation.
